Data taken from patent publication US20230250170A1.

How the values were obtained:
[1] = molecular target: human NPR1 on HEK293/hNPR1 cells (human) (UniProt P16066); experiment: cell-based or functional assay
[2] = molecular target: dog NPR1 extracellular domain expressed with a C-terminal myc-myc-hexahistidine (dog); experiment: SPR Biacore 8K, mAb captured via anti-hFc, 25 C
[3] = molecular target: human NPR1 extracellular domain expressed with a C-terminal myc-myc-hexahistidine (human) (UniProt P16066); experiment: SPR Biacore 8K, mAb captured via anti-hFc, 25 C
Sequence of human NPR1 extracellular domain expressed with a C-terminal myc-myc-hexahistidine (human) (P16066 other isoform, or with tags, fused parts or gaps): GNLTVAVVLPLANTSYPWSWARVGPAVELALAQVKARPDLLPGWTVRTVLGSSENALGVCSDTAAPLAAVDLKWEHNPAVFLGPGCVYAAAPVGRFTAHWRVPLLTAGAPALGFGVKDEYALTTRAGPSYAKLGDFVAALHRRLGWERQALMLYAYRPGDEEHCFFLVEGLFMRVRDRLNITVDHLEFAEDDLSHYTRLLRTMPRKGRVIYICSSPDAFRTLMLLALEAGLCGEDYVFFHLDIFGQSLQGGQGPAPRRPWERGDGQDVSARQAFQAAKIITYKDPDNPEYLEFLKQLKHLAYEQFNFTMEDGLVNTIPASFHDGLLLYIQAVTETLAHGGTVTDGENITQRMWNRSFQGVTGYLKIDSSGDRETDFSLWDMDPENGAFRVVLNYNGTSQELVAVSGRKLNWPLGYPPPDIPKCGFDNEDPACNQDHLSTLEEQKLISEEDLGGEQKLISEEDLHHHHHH

[4] = molecular target: monkey NPR1 extracellular domain expressed with a C-terminal myc-myc-hexahistidine (monkey); experiment: SPR Biacore 8K, mAb captured via anti-hFc, 25 C
Sequence of monkey NPR1 extracellular domain expressed with a C-terminal myc-myc-hexahistidine (monkey) (P16066 other isoform, or with tags, fused parts or gaps): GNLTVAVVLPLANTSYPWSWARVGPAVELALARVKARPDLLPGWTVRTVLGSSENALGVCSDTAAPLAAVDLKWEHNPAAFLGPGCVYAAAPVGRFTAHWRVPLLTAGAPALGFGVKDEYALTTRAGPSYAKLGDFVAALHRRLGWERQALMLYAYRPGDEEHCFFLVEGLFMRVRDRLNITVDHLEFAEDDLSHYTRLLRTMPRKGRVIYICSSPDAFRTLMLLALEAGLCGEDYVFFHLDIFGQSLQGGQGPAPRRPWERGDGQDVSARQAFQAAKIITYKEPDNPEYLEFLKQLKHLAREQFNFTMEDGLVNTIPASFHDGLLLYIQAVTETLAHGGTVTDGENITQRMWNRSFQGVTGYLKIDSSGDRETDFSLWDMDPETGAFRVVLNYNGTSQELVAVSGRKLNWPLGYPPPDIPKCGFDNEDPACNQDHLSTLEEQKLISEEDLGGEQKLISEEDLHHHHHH

[5] = molecular target: mouse NPR1 extracellular domain expressed with a C-terminal myc-myc-hexahistidine (mouse) (UniProt P18293); experiment: SPR Biacore 8K, mAb captured via anti-hFc, 25 C
Sequence of mouse NPR1 extracellular domain expressed with a C-terminal myc-myc-hexahistidine (mouse) (P18293 other isoform, or with tags, fused parts or gaps): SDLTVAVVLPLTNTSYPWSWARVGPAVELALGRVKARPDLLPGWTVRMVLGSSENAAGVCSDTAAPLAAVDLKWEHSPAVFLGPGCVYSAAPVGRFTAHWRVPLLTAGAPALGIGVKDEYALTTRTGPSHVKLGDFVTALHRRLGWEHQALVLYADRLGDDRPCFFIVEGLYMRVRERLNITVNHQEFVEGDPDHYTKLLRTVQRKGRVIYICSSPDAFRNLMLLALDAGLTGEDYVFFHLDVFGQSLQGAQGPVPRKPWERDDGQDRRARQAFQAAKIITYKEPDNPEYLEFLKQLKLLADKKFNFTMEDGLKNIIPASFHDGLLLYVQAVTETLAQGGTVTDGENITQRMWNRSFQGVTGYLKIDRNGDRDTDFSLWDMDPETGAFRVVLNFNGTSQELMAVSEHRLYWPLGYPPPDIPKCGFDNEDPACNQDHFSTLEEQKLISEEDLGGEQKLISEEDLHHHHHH

[6] = molecular target: pig NPR1 extracellular domain expressed with a C-terminal myc-myc-hexahistidine (pig); experiment: SPR Biacore 8K, mAb captured via anti-hFc, 25 C
Sequence of pig NPR1 extracellular domain expressed with a C-terminal myc-myc-hexahistidine (pig) (chain, as listed by the source limits assumed): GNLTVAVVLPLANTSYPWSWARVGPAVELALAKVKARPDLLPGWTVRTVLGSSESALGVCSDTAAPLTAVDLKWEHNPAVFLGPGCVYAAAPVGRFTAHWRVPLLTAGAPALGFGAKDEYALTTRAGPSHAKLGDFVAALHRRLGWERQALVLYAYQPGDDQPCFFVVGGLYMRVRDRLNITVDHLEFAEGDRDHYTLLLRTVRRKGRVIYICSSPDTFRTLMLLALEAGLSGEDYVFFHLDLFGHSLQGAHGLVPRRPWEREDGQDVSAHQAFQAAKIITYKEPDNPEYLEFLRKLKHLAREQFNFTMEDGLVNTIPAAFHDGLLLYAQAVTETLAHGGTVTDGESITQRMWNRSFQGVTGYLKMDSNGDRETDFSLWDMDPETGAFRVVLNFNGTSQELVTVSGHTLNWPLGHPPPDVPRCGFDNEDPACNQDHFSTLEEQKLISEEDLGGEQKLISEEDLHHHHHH

[7] = molecular target: dog NPR1 extracellular domain expressed with a C-terminal myc-myc-hexahistidine (dog); experiment: SPR Biacore 8K, mAb captured via anti-hFc, 37 C
[8] = molecular target: human NPR1 extracellular domain expressed with a C-terminal myc-myc-hexahistidine (human) (UniProt P16066); experiment: SPR Biacore 8K, mAb captured via anti-hFc, 37 C
[9] = molecular target: monkey NPR1 extracellular domain expressed with a C-terminal myc-myc-hexahistidine (monkey); experiment: SPR Biacore 8K, mAb captured via anti-hFc, 37 C
[10] = molecular target: mouse NPR1 extracellular domain expressed with a C-terminal myc-myc-hexahistidine (mouse) (UniProt P18293); experiment: SPR Biacore 8K, mAb captured via anti-hFc, 37 C
[11] = molecular target: pig NPR1 extracellular domain expressed with a C-terminal myc-myc-hexahistidine (pig); experiment: SPR Biacore 8K, mAb captured via anti-hFc, 37 C
[12] = molecular target: hNPR1-MMH in the presence of hANP (receptor-ligand complex) (human) (UniProt P01160); experiment: SPR Biacore 8K, mAb captured via anti-hFc, 25 C, 10-fold hANP present
Sequence of hNPR1-MMH in the presence of hANP (receptor-ligand complex) (human) (P01160 124-151 limits assumed, chain 2 of 2): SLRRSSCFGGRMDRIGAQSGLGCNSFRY

[13] = molecular target: hNPR1-MMH in the presence of hANP (receptor-ligand complex) (human) (UniProt P01160); experiment: SPR Biacore 8K, mAb captured via anti-hFc, 37 C, 10-fold hANP present
[14] = molecular target: human NPR1 extracellular domain expressed with a C-terminal myc-myc-hexahistidine (human) (UniProt P16066); experiment: SPR Biacore 4000, mAb captured via anti-hFc, 37 C, binding pH 7.4, dissociation pH 7.4
[15] = molecular target: monkey NPR1 extracellular domain expressed with a C-terminal myc-myc-hexahistidine (monkey); experiment: as above
[16] = molecular target: human NPR1 extracellular domain expressed with a C-terminal myc-myc-hexahistidine (human) (UniProt P16066); experiment: SPR Biacore 4000, mAb captured via anti-hFc, 37 C, binding pH 7.4, dissociation pH 6.0
[17] = molecular target: monkey NPR1 extracellular domain expressed with a C-terminal myc-myc-hexahistidine (monkey); experiment: as above

Sequence of human NPR1 on HEK293/hNPR1 cells (human) (P16066 33-1061): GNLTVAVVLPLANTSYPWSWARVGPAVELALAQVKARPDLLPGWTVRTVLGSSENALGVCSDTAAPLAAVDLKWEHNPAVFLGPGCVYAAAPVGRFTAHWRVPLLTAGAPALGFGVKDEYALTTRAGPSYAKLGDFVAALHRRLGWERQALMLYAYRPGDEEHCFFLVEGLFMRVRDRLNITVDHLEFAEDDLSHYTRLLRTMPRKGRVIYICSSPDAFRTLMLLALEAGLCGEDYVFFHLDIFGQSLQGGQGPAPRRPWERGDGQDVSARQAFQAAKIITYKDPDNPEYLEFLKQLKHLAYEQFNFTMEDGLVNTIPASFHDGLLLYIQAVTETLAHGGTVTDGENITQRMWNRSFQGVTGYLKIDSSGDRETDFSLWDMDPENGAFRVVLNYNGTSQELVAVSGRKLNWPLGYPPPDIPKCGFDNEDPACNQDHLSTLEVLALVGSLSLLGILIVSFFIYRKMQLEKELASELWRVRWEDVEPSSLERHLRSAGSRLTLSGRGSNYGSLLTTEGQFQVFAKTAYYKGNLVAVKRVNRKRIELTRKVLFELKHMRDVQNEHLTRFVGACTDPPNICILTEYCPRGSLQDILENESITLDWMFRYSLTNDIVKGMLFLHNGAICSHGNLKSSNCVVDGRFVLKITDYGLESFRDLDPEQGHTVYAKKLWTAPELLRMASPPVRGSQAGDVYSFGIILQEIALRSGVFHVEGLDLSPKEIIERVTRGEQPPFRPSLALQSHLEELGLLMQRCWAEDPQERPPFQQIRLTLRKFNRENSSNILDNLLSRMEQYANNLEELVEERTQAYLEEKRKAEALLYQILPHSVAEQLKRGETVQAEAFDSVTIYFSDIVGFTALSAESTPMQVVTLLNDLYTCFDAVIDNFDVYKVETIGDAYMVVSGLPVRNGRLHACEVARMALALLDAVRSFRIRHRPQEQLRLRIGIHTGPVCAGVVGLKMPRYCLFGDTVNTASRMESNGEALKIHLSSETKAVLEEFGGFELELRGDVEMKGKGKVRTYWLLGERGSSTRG
Sequence of dog NPR1 extracellular domain expressed with a C-terminal myc-myc-hexahistidine (dog) (chain, as listed by the source limits assumed): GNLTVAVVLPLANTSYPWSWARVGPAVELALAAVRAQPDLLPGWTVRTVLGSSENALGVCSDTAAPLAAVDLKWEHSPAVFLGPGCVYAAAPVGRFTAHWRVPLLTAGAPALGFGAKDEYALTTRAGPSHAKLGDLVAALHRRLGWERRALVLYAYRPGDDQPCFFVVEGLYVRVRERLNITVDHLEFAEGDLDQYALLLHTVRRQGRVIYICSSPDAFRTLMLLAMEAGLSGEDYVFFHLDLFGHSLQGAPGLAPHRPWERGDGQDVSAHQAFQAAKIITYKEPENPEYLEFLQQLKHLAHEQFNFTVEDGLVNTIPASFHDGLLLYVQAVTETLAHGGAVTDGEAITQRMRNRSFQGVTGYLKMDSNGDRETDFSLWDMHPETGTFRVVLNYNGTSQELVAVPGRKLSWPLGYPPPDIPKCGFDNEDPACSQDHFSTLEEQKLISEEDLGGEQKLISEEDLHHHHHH

In the case of Isotype control (antibody), the Max Kill, %, secondary ADC mediated cytotoxicity, no ligand [1] is reported as 0.01%, the Max Kill, %, secondary ADC mediated cytotoxicity, with 100 nM ANP [1] is reported as -4% and the Max Kill, %, secondary ADC mediated cytotoxicity, with 100 nM BNP [1] is reported as 0.5%. It also gave a Max inh., %, cGMP accumulation assay, with 0.2 nM ANP [1] of -1%, a Max inh., %, cGMP accumulation assay, with 0.7 nM BNP [1] of -9% and a 40 nM Ag Bound (RU) [2] of 0 RU. The 40 nM Ag Bound (RU) [3] was 0 RU, the 40 nM Ag Bound (RU) [4] was 1 RU and the 40 nM Ag Bound (RU) [5] was 0 RU. The 40 nM Ag Bound (RU) [6] was 0 RU, the 40 nM Ag Bound (RU) [7] was 0 RU and the 40 nM Ag Bound (RU) [8] was 0 RU. For the same substance, the 40 nM Ag Bound (RU) [9] was 0 RU, the 40 nM Ag Bound (RU) [10] was 0 RU and the 40 nM Ag Bound (RU) [11] was 0 RU. It also gave a 40 nM Ag Bound (RU) [12] of 0 RU, a 40 nM Ag Bound (RU) [13] of 0 RU and a 30 nM Ag Bound (RU) [14] of 2 RU. For the same substance, the 30 nM Ag Bound (RU) [15] was 1 RU, the 30 nM Ag Bound (RU) [16] was 2 RU and the 30 nM Ag Bound (RU) [17] was 2 RU.
